Common to all, as to test: light chain exchange into myosin
Experiment [1] concerns the target myosin from adult White Rock chicken pectoralis muscle (chicken) (UniProt P02609).
Experiment [2] shares this target. The source holds these as a separate data set.
Experiment [3] has the same target. This is another data set of the same source.
Experiment [4] shares this target. This is another data set of the same source.

Like-named read-outs stand apart in the source and are kept apart here.

As to “regulatory light chain LC2 singly labeled with fluorescein at Cys 125 (from UniProt P02609 1-168) (natural protein)”, the percent exchange in experiment [1] is 7%; in experiment [2], 26%; in experiment [3], 49%; in experiment [4] it was 84%.
